{"source": "patent CN109666070A", "about": "(UNIV TSINGHUA, dated 2019)", "key": {"生物素标记的RBD融合蛋白 [1]": {"target": "T1, 生物素标记的RBD融合蛋白 (MERS-CoV, UniProt K9N5Q8 367-606)", "experiment": "affinity measurement with biotin-labelled RBD fusion protein; method not stated"}, "生物素标记的RBD融合蛋白 [2]": {"target": "T1, 生物素标记的RBD融合蛋白", "experiment": "affinity measurement with biotin-labelled RBD fusion protein; method not stated", "remark": "listed apart in the source"}}, "data": [{"binder": "单克隆抗体MERS-4 (antibody, V domains shown) VH: EVQLVESGGGLVQPGRSLRLSCAASGFTFSNYAMYWVRQAPGKGLEWVALISYDISTDYYADSVKGRFTISRDNSKNTIYLQMNNLRTEDTALYYCAGNDYWGQGTLVTVSS VL: QSVLTQSPSASGTPGQRVTISCSGSSSNIGNNYVYWYQQLPGTAPKLLIYWNDQRPSGVPDRFSGSKSGTSASLAISGLRSEDEADYYCAAWDDSLSGAVFGGGTQLTVLG", "values": [{"measurement": "fold of Kd against that of MERS-4V2", "setting": "生物素标记的RBD融合蛋白 [1]", "value": 1.71, "unit": "fold"}, {"measurement": "Ka", "setting": "生物素标记的RBD融合蛋白 [2]", "value": "8e+08", "unit": "M⁻¹"}, {"measurement": "Kd", "setting": "生物素标记的RBD融合蛋白 [2]", "value": 1.25, "unit": "nM"}, {"measurement": "koff", "setting": "生物素标记的RBD融合蛋白 [2]", "value": 0.00101, "unit": "s⁻¹"}, {"measurement": "kon", "setting": "生物素标记的RBD融合蛋白 [2]", "value": 805000, "unit": "M⁻¹ s⁻¹"}]}]}
